Reference: ChEMBL document CHEMBL1649237, “IND-6, a highly divergent IND-type metallo-beta-lactamase from Chryseobacterium indologenes strain 597 isolated in Burkina Faso” (2009)

Experiments:
[1] = substrate: CC1(C)S[C@@H]2[C@H](NC(=O)Cc3ccccc3)C(=O)N2[C@H]1C(=O)O; assay: (§1) Activity at Chryseobacterium indologenes 597 metallo-beta-lactamase IND-6 expressed in Escherichia coli DH5alpha by Michaelis-Menten equation
[2] = substrate: CC1(C)S[C@@H]2[C@H](NC(=O)C(C(=O)O)c3ccccc3)C(=O)N2[C@H]1C(=O)O; assay: as §1
[3] = substrate: CC(C)(O/N=C(\C(=O)N[C@@H]1C(=O)N2C(C(=O)[O-])=C(C[n+]3ccccc3)CS[C@H]12)c1csc(N)n1)C(=O)O; assay: as §1
[4] = substrate: C[C@@H](O)[C@H]1C(=O)N2C(C(=O)O)=C(S[C@@H]3CN[C@H](C(=O)N(C)C)C3)[C@H](C)[C@H]12; assay: as §1
[5] = substrate: CC(=O)OCC1=C(C(=O)O)N2C(=O)[C@@H](NC(=O)Cc3cccs3)[C@H]2SC1; assay: as §1
[6] = substrate: CC1(C)S[C@@H]2[C@H](NC(=O)[C@H](N)c3ccc(O)cc3)C(=O)N2[C@H]1C(=O)O; assay: as §1
[7] = substrate: CC1=C(C(=O)O)N2C(=O)[C@@H](NC(=O)[C@H](N)c3ccccc3)[C@H]2SC1; assay: as §1
[8] = substrate: CO/N=C(\C(=O)N[C@@H]1C(=O)N2C(C(=O)[O-])=C(C[N+]3(C)CCCC3)CS[C@H]12)c1csc(N)n1; assay: as §1
[9] = substrate: CO/N=C(\C(=O)N[C@@H]1C(=O)N2C(C(=O)O)=C(COC(C)=O)CS[C@H]12)c1csc(N)n1; assay: as §1
[10] = substrate: C[C@@H](O)[C@H]1C(=O)N2C(C(=O)O)=C(SCCNC=N)C[C@H]12; assay: as §1
[11] = substrate: O=C(Cc1cccs1)N[C@@H]1C(=O)N2C(C(=O)[O-])=C(C[n+]3ccccc3)CS[C@H]12; assay: as §1
[12] = substrate: CO/N=C(\C(=O)N[C@@H]1C(=O)N2C(C(=O)O)=C(COC(N)=O)CS[C@H]12)c1ccco1; assay: as §1
[13] = substrate: O=C(Cc1cccs1)N[C@@H]1C(=O)N2C(C(=O)O)=C(/C=C/c3ccc([N+](=O)[O-])cc3[N+](=O)[O-])CS[C@H]12; assay: as §1
[14] = substrate: CC1(C)S[C@@H]2[C@H](NC(=O)Cc3ccccc3)C(=O)N2[C@H]1C(=O)O; assay: (§2) Ratio of Kcat to Km for Chryseobacterium indologenes 597 metallo-beta-lactamase IND-6 expressed in Escherichia coli DH5alpha by Michaelis-Menten equation
[15] = substrate: CC1(C)S[C@@H]2[C@H](NC(=O)C(C(=O)O)c3ccccc3)C(=O)N2[C@H]1C(=O)O; assay: as §2
[16] = substrate: CC(C)(O/N=C(\C(=O)N[C@@H]1C(=O)N2C(C(=O)[O-])=C(C[n+]3ccccc3)CS[C@H]12)c1csc(N)n1)C(=O)O; assay: as §2
[17] = substrate: C[C@@H](O)[C@H]1C(=O)N2C(C(=O)O)=C(S[C@@H]3CN[C@H](C(=O)N(C)C)C3)[C@H](C)[C@H]12; assay: as §2
[18] = substrate: CC(=O)OCC1=C(C(=O)O)N2C(=O)[C@@H](NC(=O)Cc3cccs3)[C@H]2SC1; assay: as §2
[19] = substrate: CC1(C)S[C@@H]2[C@H](NC(=O)[C@H](N)c3ccc(O)cc3)C(=O)N2[C@H]1C(=O)O; assay: as §2
[20] = substrate: CC1=C(C(=O)O)N2C(=O)[C@@H](NC(=O)[C@H](N)c3ccccc3)[C@H]2SC1; assay: as §2
[21] = substrate: CO/N=C(\C(=O)N[C@@H]1C(=O)N2C(C(=O)[O-])=C(C[N+]3(C)CCCC3)CS[C@H]12)c1csc(N)n1; assay: as §2
[22] = substrate: CO/N=C(\C(=O)N[C@@H]1C(=O)N2C(C(=O)O)=C(COC(C)=O)CS[C@H]12)c1csc(N)n1; assay: as §2
[23] = substrate: C[C@@H](O)[C@H]1C(=O)N2C(C(=O)O)=C(SCCNC=N)C[C@H]12; assay: as §2
[24] = substrate: O=C(Cc1cccs1)N[C@@H]1C(=O)N2C(C(=O)[O-])=C(C[n+]3ccccc3)CS[C@H]12; assay: as §2
[25] = substrate: CO/N=C(\C(=O)N[C@@H]1C(=O)N2C(C(=O)O)=C(COC(N)=O)CS[C@H]12)c1ccco1; assay: as §2
[26] = substrate: O=C(Cc1cccs1)N[C@@H]1C(=O)N2C(C(=O)O)=C(/C=C/c3ccc([N+](=O)[O-])cc3[N+](=O)[O-])CS[C@H]12; assay: as §2
[27] = substrate: CC1(C)S[C@@H]2[C@H](NC(=O)Cc3ccccc3)C(=O)N2[C@H]1C(=O)O; assay: (§3) Ratio of Kcat to Km for Chryseobacterium indologenes 597 metallo-beta-lactamase […] expressed in Escherichia coli DH5alpha by Michaelis-Menten equation
[28] = substrate: CC1(C)S[C@@H]2[C@H](NC(=O)C(C(=O)O)c3ccccc3)C(=O)N2[C@H]1C(=O)O; assay: as §3
[29] = substrate: C[C@@H](O)[C@H]1C(=O)N2C(C(=O)O)=C(S[C@@H]3CN[C@H](C(=O)N(C)C)C3)[C@H](C)[C@H]12; assay: as §3
[30] = substrate: CO/N=C(\C(=O)N[C@@H]1C(=O)N2C(C(=O)O)=C(COC(C)=O)CS[C@H]12)c1csc(N)n1; assay: as §3
[31] = substrate: C[C@@H](O)[C@H]1C(=O)N2C(C(=O)O)=C(SCCNC=N)C[C@H]12; assay: as §3

B1: Metallo-beta-lactamase IND-6 (Chryseobacterium indologenes), Q08I33 (protein)
chain: MKRRIQFFMVSMMLTPLFSAQVKDFVIEPPIKKNLYIYKTFGVFGGKEYSANSVYLVTKTGVVLFDVPWEKAQYQSLMDTIKKRHNLPVVAVFATHSHDDRAGDLSFFNNKGIKTYATPKTNQFLKRDGKATSTELIKPGKPYRFGGEEFVVDFLGEGHTADNVVVWFPKYKVLDGGCLVKSNSATDLGYIKEANLEQWPKTMHKLKTKYSEAVLIIPGHDEWKGGGHVEHTLELLDKK
[1]
  Km: 20 µM
  kcat: 305 s⁻¹
[2]
  Km: 30 µM
  kcat: 210 s⁻¹
[3]
  Km: 22 µM
  kcat: 6 s⁻¹
[4]
  Km: 145 µM
  kcat: 25 s⁻¹
[5]
  Km: 60 µM
  kcat: 415 s⁻¹
[6]
  Km: 85 µM
  kcat: 480 s⁻¹
[7]
  Km: 3 µM
  kcat: 19 s⁻¹
[8]
  Km: > 300 µM
  kcat: > 1.2 s⁻¹
[9]
  Km: 33 µM
  kcat: 8 s⁻¹
[10]
  Km: 13 µM
  kcat: 50 s⁻¹
[11]
  Km: 90 µM
  kcat: 490 s⁻¹
[12]
  Km: 23 µM
  kcat: 75 s⁻¹
[13]
  Km: 43 µM
  kcat: 115 s⁻¹
[14]
  kcat/Km: 1.5 ×10⁷ /M/s
[15]
  kcat/Km: 7 ×10⁶ /M/s
[16]
  kcat/Km: 2.7 ×10⁵ /M/s
[17]
  kcat/Km: 1.7 ×10⁵ /M/s
[18]
  kcat/Km: 6.9 ×10⁶ /M/s
[19]
  kcat/Km: 5.6 ×10⁶ /M/s
[20]
  kcat/Km: 6.3 ×10⁶ /M/s
[21]
  kcat/Km: 4 ×10³ /M/s
[22]
  kcat/Km: 2.4 ×10⁵ /M/s
[23]
  kcat/Km: 3.8 ×10⁶ /M/s
[24]
  kcat/Km: 5.4 ×10⁶ /M/s
[25]
  kcat/Km: 3.3 ×10⁶ /M/s
[26]
  kcat/Km: 2.7 ×10⁶ /M/s

B2: IND-like metallo-beta-lactamase (Chryseobacterium indologenes), Q6JE29 (protein)
chain: MKKRIQFFMVSMMLAPMFNAQVKDFVIEPPIKNNLHIYKTFGVFGGKEYSANSVYLVTKKGVVLFDVPWEKAQYQSLMDTIKKRHNLPVIAVFATHSHDDRAGDLSFFNNKGIKTYATSKTNEFLKKDGKATSTEIIKTGKPYRIGGEEFTVDFLGEGHTADNVVVWFPKYNVLDGGCLVKSNSATDLGYIKEANVEQWPITIDKLKAKYSKATLIIPGHDDWKGGGHVEHTLELLNKK
[27]
  kcat/Km: 8.4 ×10⁵ /M/s
[28]
  kcat/Km: 5.3 ×10⁴ /M/s
[29]
  kcat/Km: 1.5 ×10⁴ /M/s
[30]
  kcat/Km: 3.1 ×10⁴ /M/s
[31]
  kcat/Km: 2.4 ×10⁴ /M/s
